The record followed here is patent US20230089620A1 (JIANGSU HENGRUI PHARMACEUTICALS, published 2023).

The chains are these.
B1: B2-15 full-length fully human anti-IL-2 antibody (antibody, human IgG1, kappa, L234A L235A, V domains shown)
VH: EVQLLESGAEVKKPGASVKVSCKASGYTFTSYYMHWVRQAPGQGLEWMGIINPSGGSTSYAQKFQGRVTMTRDTSTSTVYMELSSLRSEDTAVYYCAREGNSSGYYNAFDIWGQGTMVTVSS
VL: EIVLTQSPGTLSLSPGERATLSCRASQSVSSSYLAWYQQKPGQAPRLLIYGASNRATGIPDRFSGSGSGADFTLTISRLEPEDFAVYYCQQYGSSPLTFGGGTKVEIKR
notes: Human IgG1 with LALA mutation, kappa light chain
B2: A2-22 full-length fully human anti-IL-2 antibody (antibody, human IgG1, kappa, L234A L235A, V domains shown)
VH: QVQLVQSGAEVKKPGASVKVSCKASGYTFTSYYMHWVRQAPGQGLEWMGIINPSGGSTSYAQKFQGRVTMTRDTSTSTVYMELSSLRSEDTAVYYCAREDWMEYEYYYGMDVWGQGTLVTVSS
VL: EIVLTQSPGTLSLSPGERATLSCRASQSVSNNYLAWYQQKPGQAPRLLIYGASSRATGIPDRFSGSGSGTDFTLTISRLEPEDFAVYSCQQYGSSPLTFGQGTRLEIKR
notes: Human IgG1 with L234A/L235A (LALA), kappa light chain; expressed in HEK293
B3: A3-21 full-length fully human anti-IL-2 antibody (antibody, human IgG1, lambda, L234A L235A, V domains shown)
VH: EVQLLESGGGLAQPGGSLRLSCAGSGFTFSSYAMSWVRQAPGKGLEWVSGITGTGYRTYYADSVKGRFTVSRDNSRNTVYLQMNSLRAEDTAVYYCVRESGHYYGWFDSWGQGTLVTVSS
VL: QSALTQPPSVSGAPGQRVTISCTGSSSNIGAGYNVHWYQQVPGTVPKLLIDGKGNRPSGVPDRFSGSKSGTSASLAITGLQAEDEADYYCQSYDYMLSGSVVFGRGTKLTVLG
notes: Human IgG1 with LALA mutation
B4: D2-60 full-length fully human anti-IL-2 antibody (antibody, human IgG1, kappa, L234A L235A, V domains shown)
VH: QVQLVQSGAEVKKPGASVKVSCKASGYTFTSYGISWVRQAPGQGLEWMGWISAYNGNTNYAQKLQGRVTMTTDTSTSTAYMELRSLRSDDTAVYYCAREYSSWYSGGMDVWGQGTTVTVSS
VL: DIQMTQSPSSLSASVGDRVTITCRASQGISNYLAWYQQKPGKVPKLLIYAASTLQSGVPSRFSGSGSGTDFTLTISSLQPEDVATYYCQKYDSAPFTFGQGTRLEIKR
notes: as for B1
B5: D3-68 full-length fully human anti-IL-2 antibody (antibody, human IgG1, kappa, L234A L235A, V domains shown)
VH: QVQLVQSGPEVKKPGASVKVSCKASGYTFTSYGISWVRRAPGQGLEWMGWISAYNGNTNYAQKLQGRVTMTTDTSTSTAYMELRSLRSDDTAVYYCARDLQSPTYYYGSGVIDYWGQGTLVTVSS
VL: DIQLTQSPSTLSASVGDRVTISCRASRAVSPWLAWYQHRPGQAPKLLIYAASSLQSGVPSRFSGSGSGTDFTLTISSLQPEDFATYYCQQYRSYPFTFGPGTTVDIRR
notes: as for B1
B6: C2-53 full-length fully human anti-IL-2 antibody (antibody, human IgG1, kappa, L234A L235A, V domains shown)
VH: EVQLVESGGGLVQPGRSLILSCAASGFTFDDYAMHWVRQAPGKGLEWVSGISWNSGSIGYADSVKGRFTISRDNAKNSLYLQMNSLRAEDTALYYCAKDQLRWGTYYYYGMDVWGQGTTVTVSS
VL: DIQMTQSPSTLSASVGDRVTITCRASQSVSIWVAWYQQKPGKAPKLLIYKASSLERGVPTRFSGSGSGTEFTLTISSLQPEDFATYHCQQYDTGATFGQGTKVEMKR
notes: as for B1

Chain of IL-2 (C013, Novoprotein) (P60568 21-153 limits assumed): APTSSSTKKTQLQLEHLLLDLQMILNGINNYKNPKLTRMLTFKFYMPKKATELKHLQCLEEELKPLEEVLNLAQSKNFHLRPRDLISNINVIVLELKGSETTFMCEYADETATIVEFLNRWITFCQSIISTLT

For the first assay, the target named is T1, biotin-labeled IL-2 with a human Fc-tag (Sanyou Biopharmaceutical, GenBank Accession No: P60568-1) (UniProt P60568 21-153, biotin-labeled (site not stated)).
T1 construct: Bought reagent; also called biotinylated IL-2-Fc; not shown: human Fc-tag
T1 sequence (P60568 21-153 limits assumed, one chain of several): as the sequence (P60568 21-153 limits assumed) above
In words: competition ELISA: antibody titrated, pre-incubated with biotin-IL-2-Fc (5 µg/mL); competitor coated IL-2Rβ-Fc. The method, then:
(§1) IL-2Rβ-Fc (CJ82, Novoprotein) was diluted to 8 μg/mL with PBS and added at 30 μL/well to coat an ELISA plate, and the plate was incubated overnight at 4° C. The plate was washed with PBST 3 times. The plate was blocked with 1% BSA for 1 h at room temperature and washed with PBST 3 times. […] The plate was incubated at room temperature for 1 h, and washed with PBST 3 times. 30 μL of secondary antibody NeutrAvidin-HRP diluted in a 1:6000 ratio was added, and the plate was incubated at room temperature for 1 h and washed with PBST 9 times. 30 μL of TMB was added for color developing for 5-10 min at room temperature, then 30 μL of 2 M HCl or H₂SO₄ was added to terminate the reaction. The plate was read for data by a microplate reader at OD 450.
As a reminder, the IC50 is the concentration that gives 50% inhibition. The molecule B1 returned a 50% inhibitory concentration (IC50) of 3.04 µg/mL.
On the same count and under the same terms, with B2 the figure was 2.73 µg/mL.
On the same count and under the same terms, with B3 the figure was 3.48 µg/mL.
The same measure, in the same setting: with B4 the figure was 8.27 µg/mL; with B5, 2.13 µg/mL.
The molecule B6 came in with a half-maximal inhibitory concentration (IC50) of 1.44 µg/mL.

The target of another assay is T1, biotin-labeled IL-2 with a human Fc-tag …. In words: ELISA, antibody titrated and captured by anti-human IgG, biotin-IL-2-Fc 2 µg/mL. How it is done: Anti-human IgG (STAR161, Bio-rad) was diluted to 2 μg/mL with PBS and added at 30 μL/well to coat an ELISA plate, and the plate was incubated overnight at 4° C. The plate was washed with PBST 3 times. The plate was blocked with 1% BSA for 1 h at room temperature and washed with PBST 3 times. […] 30 μL of the antibody solution was added to an ELISA plate, and the plate was incubated at room temperature for 1 h and washed with PBST 3 times. […] The plate was incubated at room temperature for 1 h and washed with PBST 3 times. 30 μL of secondary antibody NeutrAvidin-HRP diluted in a 1:6000 ratio was added. The plate was incubated at room temperature for 1 h and washed with PBST 9 times. 30 μL of TMB was added for color developing for 5-10 min at room temperature, then 30 μL of 2M HCl or H₂SO₄ was added to terminate the reaction. The plate was read for data by a microplate reader at OD 450.
(In general: ELISA stands for enzyme-linked immunosorbent assay.)
By EC50 is commonly meant the concentration needed to bring the measured effect to its halfway point. With B1, the EC50 came to 2.12 µg/mL.
Turning to B2, the EC50 stood at 1.29 µg/mL.
Still for that read-out and setting: with B3 the figure was 1.35 µg/mL.
Regarding B4, a half-maximal effect (EC50) was put at 1.43 µg/mL.
Regarding B5, the EC50 came to 1.21 µg/mL.
Turning to B6, the EC50 turned out to be 0.73 µg/mL.

The target is the same in another assay. In words: competition ELISA: antibody titrated, pre-incubated with biotin-IL-2-Fc (1 µg/mL); competitor coated IL-2Rα-Fc. How it is done: as §1, with “IL-2Rα-Fc (CJ78,” for “IL-2Rβ-Fc (CJ82,”, “Novoprotein) (Accession #NP_000408)” for “Novoprotein)”, “0.5” for “8”
B3 returned an IC50 of 1.46 µg/mL.
On to B5, for which the IC50 amounted to 1.2 µg/mL.
With B6, the half-maximal inhibitory concentration (IC50) stood at 0.659 µg/mL.

The target of the next assay is IL-2 (C013, Novoprotein) (UniProt P60568 21-153). Kind of assay: SPR (Biacore T200), antibody captured on Protein A chip, IL-2 analyte, 1:1 model. The method, then:
The solutions flowed at a flow rate of 30 μL/min for dissociation for 300 s. The reaction signals were detected in real time to obtain association and dissociation curves. After the dissociation was completed for each assay cycle, the chip was washed and regenerated with 10 mM Gly-HCl, pH 2.0.
In general terms: Surface plasmon resonance follows binding to a sensor surface in real time, without labels.
As usually defined, the Kd is a measure of binding affinity in units of concentration. In general, koff refers to a measure of how fast the partners let go of each other. Broadly, the kon is a measure of how fast the partners come together. B1 showed a Kd of 30.6 nM, a koff of 0.0448 s⁻¹ and an on-rate constant (kon) of 1.46e+06 M⁻¹ s⁻¹.
B2 came in with a Kd of 39.8 nM, a koff of 0.0527 s⁻¹ and a kon of 1.33e+06 M⁻¹ s⁻¹.
The like results for B4 were, in that order, 12.8 nM, 0.00651 s⁻¹ and 509000 M⁻¹ s⁻¹.
The matching figures for B5: 4.72 nM, 0.0546 s⁻¹ and 1.16e+07 M⁻¹ s⁻¹.
The matching figures for B6: 0.267 nM, 0.00437 s⁻¹ and 1.64e+07 M⁻¹ s⁻¹.

Another assay deals with T1, biotin-labeled IL-2 with a human Fc-tag …. In words: Octet: biotin-IL-2-Fc sensor loaded with antibody (500 nM), reading at 230 s of IL-2Rβ-Fc (8000 nM) binding; lower = stronger blocking. How it is done: A Streptavidin biosensor (Fortebio, #18-5020) was immersed in 200 μL of KB buffer (PBS, pH 7.4, 0.05% tween-20, 0.1% BSA) for 60 s for the wetting treatment. […] The IL-2Rβ-Fc (CJ82, Novoprotein) was diluted to a final concentration of 8000 nM with the KB buffer, and the sensor was immersed in the antibody solution for association for 300 s. […] The values at 230 s after the beginning of the binding of IL-2Rβ-Fc were read.
Background: In BLI a coated tip is dipped into the sample, and binding shifts an interference pattern.
Regarding B1, the “Values for blocking IL-2Rβ at an Octet level” value was found to be 0.056.
Still for that read-out and setting: to B2 belongs 0.042; to B3, 0.003; to B4, 0.086.
On the same count and under the same terms, to B5 belongs 0.027; to B6, 0.017.

For the next assay, the target named is T2, IL-2-His (CX66, Novoprotein) (UniProt P60568 21-153).
T2 construct: Bought reagent; not shown: His tag
T2 sequence (P60568 21-153 limits assumed): as above
Kind of assay: Octet: reading at 230 s of IL-2-His (100 nM) + antibody (500 nM) on biotin-IL-2Rα-Fc sensor; lower = stronger blocking. How it is done: A Streptavidin biosensor (Fortebio, #18-5020) was immersed in 200 μL of KB buffer (PBS, pH 7.4, 0.05% tween-20, 0.1% BSA) for 60 s for the wetting treatment. Then, biotinylated IL-2Rα-Fc (CJ78, Novoprotein) was diluted to 10 μg/mL with the KB buffer, and the sensor was immersed in 200 μL of the solution for 150 s. The sensor was immersed in the KB buffer for 60 s to elute excess IL-2Rα. […] The sensor was immersed in the mixture for 300 s for association. […] The values at 230 s after the beginning of the binding were read.
For B1, the “Values for blocking IL-2Rα at an Octet level” value came to 0.7.
Same read-out and setting: with B2 the figure was 0.848.
On the same count and under the same terms, to B3 belongs 0.428.
For B4, the “Values for blocking IL-2Rα at an Octet level” value was found to be 0.754.
Same read-out and setting: to B5 belongs 0.473; to B6, 0.41.
